Measured values: patent US10975360B2, “Process for the modification of alkanes, fatty acids and fatty alcohols” (priority 2016, dated 2021)

Tests used:
[1] = format: biochemical, E. coli
Description: (§1) Expression of genes in E. coli was performed by using ZYP-5052 auto-induction medium (Table 1) with in the case of the CYP 1 mM 5-aminolevulinic acid and 0.05 mM FeCl3 added. The CYP505E3 culture was cultivated using baffled flasks and incubated at 20° C. and 180 rpm for 24 h, while the GDH, and HLADH expressing cultures were all cultivated at 25° C. and 200 rpm for 24 h. Cultures were harvested through centrifugation (6 000×g, 10 min) and 1 g (wet weight) resuspended in 2 ml, 5 ml or 10 ml Tris-HCl, Phosphate or MOPS buffer, as indicated, (pH 8, 200 mM) containing 100 mM of glucose and glycerol. CFEs were obtained by a single passage of the suspended cells through a One Shot Cell Disrupter (Constant Systems) at 207 MPa. The soluble fraction was separated from unbroken cells by centrifugation (20 000×g, 20 min).
Biotransformations of dodecane, tetradecane and hexadecane were carried using only CYP505E3 containing CFE prepared from an E. coli cell suspension (1 g wet weight in 10 ml buffer) in MOPS buffer (200 mM, pH 8) containing glucose and glycerol (100 mM each) as well as 0.1 mM NADPH. Alkane substrates (250 μL) were added to 1 mL BRM in 40 ml amber glass vials. These vials were placed on an orbital shaker at 20° C., 200 rpm, oscillation amplitude 26 mm and incubated for 24 h.

[2] = Biotransformation of hexadecanoic acid using CFE of E. coli, Tris-HCl buffer; format: biochemical
Description: as §1
(§2) The biotransformation reaction mixture (BRM) consisted of CYP and GDH CFE suspensions prepared from cells in Tris-HCl buffers (1 g wet weight in 2 ml buffer) mixed in a 1:1 ratio with 0.1 mM NADPH added. Dodecanoic acid, tetradecanoic acid, hexadecanoic acid, 1-tetradecanol and 1-hexadecanol (20 μl of a 255 mM stock solution in DMSO) were added to 40 ml amber glass vials containing 1 ml BRM to give final substrate concentrations of 5 mmol·LBRM^−1. These vials were placed on an orbital shaker at 20° C., 200 rpm, oscillation amplitude 26 mm. Vials were removed after 24 h for extraction. Biotransformations were stopped by adding 170 ul of 0.5M HCl, extracted with 2×500 μl EtOAc and subjected to GC-MS analysis. A sample of δ-dodecalactone in ethyl acetate (0.1 mM) was also methylated with TMSH and subjected to GC-MS analysis.

[3] = Biotransformation of 1-hexadecanol using CFE of E. coli, Tris-HCl buffer; format: biochemical; conditions: 5 mmol/L substrate, 24 h
Description: as §1
as §2, with “Vials were removed after 24 h for extraction. Biotransformations were stopped by adding 170 ul of 0.5M HCl, extracted with 2×500 μl EtOAc and subjected to GC-MS analysis. A sample of δ-dodecalactone in ethyl acetate (0.1 mM) was also methylated with TMSH and subjected to GC-MS analysis.” left out

[4] = Biotransformation of tetradecanoic acid using CFE of E. coli, Tris-HCl buffer; format: biochemical; conditions: 5 mmol/L substrate, CFE of E. coli, Tris-HCl, 24 h
Description: as §1, §2

[5] = Biotransformation of dodecanoic acid using CFE of E. coli, Tris-HCl buffer; format: biochemical; conditions: 5 mmol/L substrate, CFE of E. coli, Tris-HCl, 24 h
Description: as §1, §2

[6] = format: cell-based, P. pastoris
Description: Precultures of P. pastoris transformants were prepared in buffered complex glycerol media (BMGY). BMGY contained: 10 g/l yeast extract, 20 g/l peptone, 3.4 g/l yeast nitrogen base, 10 g/l ammonium sulfate, 100 mM potassium phosphate (pH 6), 0.4 mg/l biotin and 1% (v/v) glycerol. Erlenmeyer flasks (500 ml) containing 50 ml BMGY media were inoculated with single colonies of 24 h old YPD-agar cultures of P. pastoris KM71 mut^s3/CYP505E3 and incubated at 30° C. and 225 rpm for 24 h. The cultures were harvested using pre-weighed centrifuge tubes at 3000 g for 5 min and stored on ice until further use.
The main cultures for expression were prepared in buffered complex methanol media (BMMY) containing 10 g/l yeast extract, 20 g/l peptone, 3.4 g/l yeast nitrogen base, 10 g/l ammonium sulfate, 100 mM potassium phosphate (pH 6), 0.4 mg/l biotin and 0.5 or 1% (v/v) methanol. Harvested cells from precultures were resuspended in BMMY media to final concentration of 1 g WC per 40 ml (appx. 25 g/l). The resuspended cultures (100 ml) were transferred to 500 ml Erlenmeyer flasks and incubated at 25° C. and 225 rpm for 24 h. The cultures were then harvested at 3000 g for 5 min using pre-weighed centrifuge tubes.
Different transformants of Pichia pastoris KM71 harbouring the CYP505 genes for SEQ ID Nos 1 to 7 and 9 to 12 were grown and harvested as described above. The harvested cells were resuspended to give 1 g wet cell weight in 40 ml MOPS buffer (200 mM, 100 mM glucose, 100 mM glycerol, pH 8) and 1 ml aliquots of these cell suspensions were transferred to 40 ml amber vials. Dodecane, 1-dodecanol and 1-tetradecanol were added neat to these cell suspensions to give final concentrations of 200 mM in the case of the alcohols and 1 M in the case of dodecane while in the case of dodecanoic acid 20 μl of a 500 mM stock solution (in DMSO) was added to give a final concentration of 10 mM. Transformants harbouring the CYP505 genes for SEQ ID Nos 1 to 4 were tested for the biotransformation of 1-dodecanol, 1-tetradecanol, dodecanoic acid, tetradecanoic acid and dodecane, while those harbouring the CYP505 genes for SEQ ID Nos 5 to 7 and 9 to 12 were only tested for the biotransformation of 1-dodecanol and dodecanoic acid. The biotransformations were incubated at 25° C. and 225 rpm for 24 h. Extractions were performed using ethyl acetate (500 μl×2). The extracts were analyzed using GC/MS.

[7] = Biotransformation of 1-tetradecanol using CFE of E. coli, Tris-HCl buffer; format: biochemical; conditions: 5 mmol/L substrate, CFE of E. coli, Tris-HCl, 24 h
Description: as §1
as §2, with “Vials were removed after 24 h for extraction. Biotransformations were stopped by adding 170 ul of 0.5M HCl, extracted with 2×500 μl EtOAc and subjected to GC-MS analysis. A sample of δ-dodecalactone in ethyl acetate (0.1 mM) was also methylated with TMSH and subjected to GC-MS analysis.” left out

[8] = format: biochemical
Description: To convert 1,5-dodecanediol to δ-dodecalactone 170 μL of an ethyl acetate extract containing 150 mM dodecanol and 5.5 mM 1,5-dodecanediol was placed in a 40 mL vial and the ethyl acetate evaporated by incubating the vial at 100° C. for 5 min. After evaporation of the ethyl acetate the dodecanol/dodecanediol mixture was resuspended in 1 mL of an HLADH expressing culture of E. coli permeabilized with Triton X100 (1% v/v was added and the cell suspension incubated at 37° C. for 10 min). This reaction mixture containing 1 mM of 1,5-dodecanediol and 25 mM of dodecanol was incubated at 30° C. and 180 rpm for 24 h. It was then extracted with ethyl acetate (2×0.5 mL) containing 2 mM undecanol as internal standard and analysed on a VF5 column using a GC with FID detector for quantification and a GC-MS with a Chiraldex G-TA column (30 m×0.25 mm ID) to determine enantioselectivity. The ethyl acetate extract contained 0.2 mM 1,5-dodecanediol and 0.65 mM δ-dodecalactone (R:S ratio 84:16, ee 67%) while the δ-dodecalactone produced from dodecanoic acid in previous experiments using CYP505E3 was an almost racemic mixture (R:S ratio 55:45, ee 10%) (FIG. 12).

B1: CYP505E3: self-sufficient cytochrome P450 monooxygenase from Aspergillus terreus, SEQ ID No 1 (protein, listed as Aspergillus terreus)
chain: MIKETEQIPGPRPLPVVGNLFDMDLEHGLECLIRLADDFGPLFQITINGEKQIFATSQALVDELCDESRFHKAVMGGLEKLRMLASDGLFTAYHGERGWGIAHRILVPAFGPLRIRNMFEEMNDVAQQLCLKWARQGSSTSINITDDFTRLTLDTIALCTMNFRLNSFYNNETMHPFVKSMLYVLRESDIQSMLPGIANCIRVKARSRMSKHIQLMRNMARGIIQERRDQAEPVDDLLNTLLNGRDPVTGEGMSDDLIINNVITFLIAGHETTSGLLSFTFYYLLQNPHILERAQNEVDEVTGGERITVQHLGRLTYIDAILKESLRLMPTAPAFTVTPKKPEVLGGAWAIDAGQAVNVLLPVCLRDRSVFGPDADEFRPERMLEENFSKLPPNSWKPFGNGERSCIGRAFAWQEAQLVVAMVLQTFDLVPDDPSYKLRIKETLTIKPDGFRVRATLRRGQSATGLSQGSMSASGATSSVASPGPPAATGAQSNPAGGQRISFFYGSNSGTCKALAHRLASSLMGRGFTEQKLAALDTVVGNLPTDQPVIIVTTSYDGRPTDDAEEFVRWLESKRPVLQGVSYAVFGCGHHDWAKTFYRIPILIDDLMHKAGATRLTALGTANAAVSDLFSDLELWEETNLLPALREAFPPSNSSDVESSEPHQLQICVSKPRRVDMHRGLVEAKVTAVRTLTSPDSPEKRHVEFHVQGDTTWRPGDHVNILPVNPLSTVSRVLAYFQLAPDHSITVNSFNTQGLPSATPVSATELFSSFVELSQPATRKNLKALAMAAESKTDEQELIRLHDSYDALVRDKRVSVLDILERFPSISLPIGIFISMLPPLRLRTYSLSMAPSFKPSHGSLTFSVINEPAWSGNGQYLGVGSNYLASLTPGSLLYLSPRPAKDAFHLPADQFNTPIIMICAGSGLAPFMGFIQERMTWLKQGRPLAKGLLFFGCRGPHLDDLYYEELSEFEDAGVVEVHRAYSRAPDDVRAKGCRHVQHRLVTEAEAVRDHWGRNAIVYVCGSSNMARGVQTVLEEILGTLPPERYVAEIF
[1]
  product from dodecane (GC-MS): 5-dodecanol
  product from tetradecane (GC-MS): 7-tetradecanol
[2]; 5 mmol/L substrate, Tris-HCl, 24 h
  products identified from hexadecanoic acid (GC-MS, methylated samples): 9-hydroxy hexadecanoic acid
[2]; C16 fatty acid, GC-MS peak height
  ω-7 hydroxylase activity C16FA: ++ (++ 0.1 million < RA < 1 million)
[3]
  products detected from hexadecanol (GC-MS): did not allow detection of any products
[4]
  products identified from tetradecanoic acid (GC-MS, methylated samples): 7-hydroxy tetradecanoic acid
[5]
  products identified from dodecanoic acid (GC-MS, methylated samples): δ-dodecalactone and the methyl ester of 5-hydroxy dodecanoic acid
[6]
  products produced from tetradecanoic acid (GC-MS): only 7-hydroxy tetradecanoic acid
[7]
  products detected from tetradecanol (GC-MS): 1,7-tetradecane diol and 1,8-tetradecane diol
[8]
  δ-dodecalactone R:S ratio: 55:45
  δ-dodecalactone ee: 10%
